In patent US20150079071:

Experiments:
[1] = test system: recombinant HSP90β (385903, Calbiochem/EMD Millipore)
[2] = molecular target: heat-shock protein 90β (HSP90β), endogenous, in conditioned medium of SCp2 cells (UniProt P11499)
Chain of heat-shock protein 90β (HSP90β), endogenous, in conditioned medium of SCp2 cells (P11499 2-724): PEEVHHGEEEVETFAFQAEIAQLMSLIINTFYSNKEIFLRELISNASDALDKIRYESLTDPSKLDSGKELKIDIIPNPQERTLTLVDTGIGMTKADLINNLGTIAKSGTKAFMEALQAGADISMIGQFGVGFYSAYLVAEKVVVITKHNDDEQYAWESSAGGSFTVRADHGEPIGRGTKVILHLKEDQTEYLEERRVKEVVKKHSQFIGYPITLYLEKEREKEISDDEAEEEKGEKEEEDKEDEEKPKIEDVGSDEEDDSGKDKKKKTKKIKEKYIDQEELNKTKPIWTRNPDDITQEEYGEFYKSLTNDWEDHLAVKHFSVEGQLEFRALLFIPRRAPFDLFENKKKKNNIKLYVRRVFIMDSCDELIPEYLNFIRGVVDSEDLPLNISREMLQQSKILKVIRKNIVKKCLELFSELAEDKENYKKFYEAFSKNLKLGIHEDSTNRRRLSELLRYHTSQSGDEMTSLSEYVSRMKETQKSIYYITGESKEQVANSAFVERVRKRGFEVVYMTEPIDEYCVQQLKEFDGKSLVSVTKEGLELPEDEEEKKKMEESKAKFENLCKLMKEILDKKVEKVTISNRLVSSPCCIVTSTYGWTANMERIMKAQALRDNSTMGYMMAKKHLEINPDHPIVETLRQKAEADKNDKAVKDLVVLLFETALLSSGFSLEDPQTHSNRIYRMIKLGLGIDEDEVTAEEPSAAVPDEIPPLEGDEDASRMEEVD

Chain of Flag-tagged full-length human MMP3 (FL) (chain, as listed by the source): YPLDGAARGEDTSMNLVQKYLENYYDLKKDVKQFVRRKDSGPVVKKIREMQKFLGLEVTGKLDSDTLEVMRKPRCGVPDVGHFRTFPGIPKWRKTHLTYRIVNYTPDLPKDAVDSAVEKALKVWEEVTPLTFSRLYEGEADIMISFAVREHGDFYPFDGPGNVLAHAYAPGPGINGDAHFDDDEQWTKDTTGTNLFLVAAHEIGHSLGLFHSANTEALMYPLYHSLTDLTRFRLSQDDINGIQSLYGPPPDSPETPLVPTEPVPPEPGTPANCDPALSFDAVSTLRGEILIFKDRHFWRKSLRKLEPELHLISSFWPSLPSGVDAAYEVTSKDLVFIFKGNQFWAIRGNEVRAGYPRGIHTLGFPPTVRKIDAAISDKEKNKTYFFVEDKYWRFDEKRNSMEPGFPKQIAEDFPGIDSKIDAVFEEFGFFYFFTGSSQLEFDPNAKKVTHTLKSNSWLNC

## Flag-tagged full-length human MMP3 (FL)
[1]
  invasion and branching (spatial network) of mammary organoids in 3D Col-1 gels with recombinant HSP90β: The recombinant HSP90β added extracellularly enabled the secreted MMP3 to induce the most exuberant branched structures
[2]
  invasion and branching (spatial network) of mammary organoids in 3D Col-1 gels with a function-blocking antibody against HSP90β: blocking the extracellular HSP90β with inhibitory antibodies added to the medium abolished branching ability in all organoids, including controls
